The values that follow come from US20110135647A1 (ONCOTHERAPY SCIENCE, published 2011).

Assay [1] has as its target T1, GST-tagged PP1α (GST-PP1α) (human, UniProt P62136 1-330).
T1 construct: also called GST-fused PP1α; not shown: glutathione S-transferase (GST) tag of the pCAGGS-nGST vector, N-terminal
The experiment in a line: anti-HA immunoprecipitation from co-transfected COS-7 cells, anti-GST blot.

Assay [2] has as its target T2, myc-tagged p97 (p97/VCP-myc-6×His) (human, UniProt P55072 1-806).
T2 construct: Expressed in COS-7 cells; also called myc-p97; p97/VCP-myc-His; not shown: C-terminal myc-6×His tag of pcDNA3.1-myc-His
The experiment in a line: co-immunoprecipitation with HA-tag antibody from co-transfected cells.

The target in assay [3] is T3, HA-tagged A7322 (A7322-HA) (human, UniProt Q5TH69 1-2177).
T3 construct: Expressed in COS-7 cells for the ERα co-immunoprecipitation; not shown: HA tag
T3 sequence (Q5TH69 whole entry): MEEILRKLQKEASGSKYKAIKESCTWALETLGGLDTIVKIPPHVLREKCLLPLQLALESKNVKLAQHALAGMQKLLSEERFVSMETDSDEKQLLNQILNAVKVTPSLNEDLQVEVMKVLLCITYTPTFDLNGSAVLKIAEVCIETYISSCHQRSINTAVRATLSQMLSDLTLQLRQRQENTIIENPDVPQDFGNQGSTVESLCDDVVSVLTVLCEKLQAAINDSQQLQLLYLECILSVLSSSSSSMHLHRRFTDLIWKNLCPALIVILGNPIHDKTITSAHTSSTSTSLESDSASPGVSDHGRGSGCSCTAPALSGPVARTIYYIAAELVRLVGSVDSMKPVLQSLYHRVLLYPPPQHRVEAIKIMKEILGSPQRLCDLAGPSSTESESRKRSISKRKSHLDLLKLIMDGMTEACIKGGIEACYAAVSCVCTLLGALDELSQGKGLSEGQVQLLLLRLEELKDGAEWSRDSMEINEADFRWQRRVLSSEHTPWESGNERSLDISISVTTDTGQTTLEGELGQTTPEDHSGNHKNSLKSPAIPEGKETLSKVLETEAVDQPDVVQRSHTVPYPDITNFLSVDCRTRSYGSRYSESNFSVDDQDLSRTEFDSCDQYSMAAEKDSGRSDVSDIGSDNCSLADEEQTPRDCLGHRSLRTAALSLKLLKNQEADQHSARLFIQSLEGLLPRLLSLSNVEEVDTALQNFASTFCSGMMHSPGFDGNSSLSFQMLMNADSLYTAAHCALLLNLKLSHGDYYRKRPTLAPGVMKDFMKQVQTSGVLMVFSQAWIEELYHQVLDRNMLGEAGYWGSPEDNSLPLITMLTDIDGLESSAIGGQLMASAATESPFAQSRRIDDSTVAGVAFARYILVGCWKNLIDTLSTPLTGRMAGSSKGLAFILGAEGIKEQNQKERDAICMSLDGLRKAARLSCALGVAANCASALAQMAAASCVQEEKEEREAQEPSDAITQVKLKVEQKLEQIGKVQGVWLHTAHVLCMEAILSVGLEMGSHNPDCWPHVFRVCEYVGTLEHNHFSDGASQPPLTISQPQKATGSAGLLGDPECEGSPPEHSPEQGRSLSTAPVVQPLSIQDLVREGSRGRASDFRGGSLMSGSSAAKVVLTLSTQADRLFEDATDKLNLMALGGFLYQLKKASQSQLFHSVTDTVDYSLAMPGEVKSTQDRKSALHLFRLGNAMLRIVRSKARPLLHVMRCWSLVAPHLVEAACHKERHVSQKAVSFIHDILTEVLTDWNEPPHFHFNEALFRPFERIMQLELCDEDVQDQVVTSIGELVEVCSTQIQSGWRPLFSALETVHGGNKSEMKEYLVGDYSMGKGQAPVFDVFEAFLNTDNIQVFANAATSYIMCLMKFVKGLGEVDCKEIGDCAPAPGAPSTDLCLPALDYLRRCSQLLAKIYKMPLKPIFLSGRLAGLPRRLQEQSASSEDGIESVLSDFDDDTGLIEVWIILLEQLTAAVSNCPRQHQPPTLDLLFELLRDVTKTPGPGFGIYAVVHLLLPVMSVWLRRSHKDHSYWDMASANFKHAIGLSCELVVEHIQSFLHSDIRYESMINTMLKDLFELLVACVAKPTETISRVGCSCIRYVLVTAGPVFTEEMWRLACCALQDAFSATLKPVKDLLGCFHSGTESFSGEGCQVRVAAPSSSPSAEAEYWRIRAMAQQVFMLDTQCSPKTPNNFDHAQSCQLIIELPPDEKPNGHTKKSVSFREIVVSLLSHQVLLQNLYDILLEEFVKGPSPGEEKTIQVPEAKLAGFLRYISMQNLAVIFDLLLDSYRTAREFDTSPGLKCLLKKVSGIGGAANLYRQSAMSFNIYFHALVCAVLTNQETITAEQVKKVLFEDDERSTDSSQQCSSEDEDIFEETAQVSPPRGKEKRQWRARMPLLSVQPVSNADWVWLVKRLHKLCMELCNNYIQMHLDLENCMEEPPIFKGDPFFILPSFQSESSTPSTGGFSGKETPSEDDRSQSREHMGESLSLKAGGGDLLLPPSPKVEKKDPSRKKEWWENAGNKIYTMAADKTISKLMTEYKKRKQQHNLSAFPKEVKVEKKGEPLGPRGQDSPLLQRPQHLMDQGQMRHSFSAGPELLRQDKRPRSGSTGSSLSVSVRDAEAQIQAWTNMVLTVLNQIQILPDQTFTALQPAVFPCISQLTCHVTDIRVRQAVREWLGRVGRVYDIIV
As to the kind of experiment: co-immunoprecipitation from co-transfected COS-7 cells, anti-FLAG IP / anti-HA blot and the reverse.

T1 sequence (P62136 whole entry, the tested form may be a part): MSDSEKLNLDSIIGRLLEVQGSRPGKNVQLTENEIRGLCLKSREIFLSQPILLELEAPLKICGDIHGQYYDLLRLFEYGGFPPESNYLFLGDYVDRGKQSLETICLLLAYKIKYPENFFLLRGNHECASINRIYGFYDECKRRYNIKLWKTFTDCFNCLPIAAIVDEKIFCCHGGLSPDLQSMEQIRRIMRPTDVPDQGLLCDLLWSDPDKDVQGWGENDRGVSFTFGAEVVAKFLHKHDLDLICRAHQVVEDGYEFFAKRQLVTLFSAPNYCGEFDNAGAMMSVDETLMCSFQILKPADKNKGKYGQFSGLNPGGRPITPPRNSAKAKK
T2 sequence (P55072 whole entry): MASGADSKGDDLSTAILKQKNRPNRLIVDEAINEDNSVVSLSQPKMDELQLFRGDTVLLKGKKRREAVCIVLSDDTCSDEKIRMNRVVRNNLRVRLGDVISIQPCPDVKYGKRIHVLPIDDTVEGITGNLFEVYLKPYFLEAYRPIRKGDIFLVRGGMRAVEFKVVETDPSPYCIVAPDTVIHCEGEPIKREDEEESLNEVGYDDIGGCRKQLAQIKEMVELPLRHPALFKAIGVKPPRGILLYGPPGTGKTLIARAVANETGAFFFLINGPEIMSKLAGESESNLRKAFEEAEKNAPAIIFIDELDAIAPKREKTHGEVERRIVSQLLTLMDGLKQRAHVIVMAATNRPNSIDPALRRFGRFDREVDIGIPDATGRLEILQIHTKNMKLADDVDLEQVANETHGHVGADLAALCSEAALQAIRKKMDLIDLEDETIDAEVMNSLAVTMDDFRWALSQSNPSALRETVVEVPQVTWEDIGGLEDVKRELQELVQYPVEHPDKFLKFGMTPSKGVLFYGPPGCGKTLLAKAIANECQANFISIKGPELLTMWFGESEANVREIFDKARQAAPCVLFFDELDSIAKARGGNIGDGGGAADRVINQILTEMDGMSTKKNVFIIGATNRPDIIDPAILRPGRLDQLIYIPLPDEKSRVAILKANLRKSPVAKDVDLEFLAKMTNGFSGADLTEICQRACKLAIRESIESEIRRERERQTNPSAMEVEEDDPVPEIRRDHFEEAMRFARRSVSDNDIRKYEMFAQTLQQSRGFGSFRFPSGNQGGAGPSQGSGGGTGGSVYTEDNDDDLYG

B1: HA-tagged PBK/TOPK (HA-PBK/TOPK), wild type (enzyme)
chain: MEGISNFKTPSKLSEKKKSVLCSTPTINIPASPFMQKLGFGTGVNVYLMKRSPRGLSHSPWAVKKINPICNDHYRSVYQKRLMDEAKILKSLHHPNIVGYRAFTEANDGSLCLAMEYGGEKSLNDLIEERYKASQDPFPAAIILKVALNMARGLKYLHQEKKLLHGDIKSSNVVIKGDFETIKICDVGVSLPLDENMTVTDPEACYIGTEPWKPKEAVEENGVITDKADIFAFGLTLWEMMTLSIPHINLSNDDDDEDKTFDESDFDDEAYYAALGTRPPINMEELDESYQKVIELFSVCTNEDPKDRPSAAHIVEALETDV
notes: Expressed in COS-7 or T47D cells; also called HA-tagged TOPK; WT; not shown: N-terminal HA tag (pCAGGSnHA)
On to B1, for which the figures for the binding result in assay [1] and in assay [2] were “binds” and “no binding”, respectively.

B2: FLAG-tagged ERα (ERα-FLAG) (receptor, UniProt P03372 1-595, looked up)
chain: MTMTLHTKASGMALLHQIQGNELEPLNRPQLKIPLERPLGEVYLDSSKPAVYNYPEGAAYEFNAAAAANAQVYGQTGLPYGPGSEAAAFGSNGLGGFPPLNSVSPSPLMLLHPPPQLSPFLQPHGQQVPYYLENEPSGYTVREAGPPAFYRPNSDNRRQGGRERLASTNDKGSMAMESAKETRYCAVCNDYASGYHYGVWSCEGCKAFFKRSIQGHNDYMCPATNQCTIDKNRRKSCQACRLRKCYEVGMMKGGIRKDRRGGRMLKHKRQRDDGEGRGEVGSAGDMRAANLWPSPLMIKRSKKNSLALSLTADQMVSALLDAEPPILYSEYDPTRPFSEASMMGLLTNLADRELVHMINWAKRVPGFVDLTLHDQVHLLECAWLEILMIGLVWRSMEHPGKLLFAPNLLLDRNQGKCVEGMVEIFDMLLATSSRFRMMNLQGEEFVCLKSIILLNSGVYTFLSSTLKSLEEKDHIHRVLDKITDTLIHLMAKAGLTLQQQHQRLAQLLLILSHIRHMSNKGMEHLYSMKCKNVVPLYDLLLEMLDAHRLHAPTSRGGASVEETDQSHLATAGSTSSHSLQKYYITGEAEGFPATV
notes: Expressed in COS-7 cells; also called FLAG-ERα; estrogen receptor α; not shown: FLAG tag
B2: the binding result in assay [3] is recorded as “no binding”.
